In US7985404B1, “Reducing hair growth, hair follicle and hair shaft size and hair pigmentation” (Johnson & Johnson Consumer Companies, Inc., priority 1999, dated 2011):

B1: STI: soybean-derived serine protease inhibitor protein from Sigma-Aldrich, used in PBS-liposome vehicle (protein, UniProt P01070 25-205, looked up)
Trypsin inhibitor A: DFVLDNEGNPLENGGTYYILSDITAFGGIRAAPTGNERCPLTVVQSRNELDKGIGTIISSPYRIRFIAEGHPLSLKFDSFAVIMLCVGIPTEWSVVEDLPEGPAVKIGENKDAMDGWFRLERVSDDEFNNYKLVFCPQQAEDDKCGDIGISIDHDDGTRRLVVSKNKPLVVQFQKLDKESL
B2: BBI: soybean-derived serine protease inhibitor protein from Sigma-Aldrich, used in PBS-liposome vehicle (protein, UniProt P01055 40-110, looked up)
Bowman-Birk type proteinase …: DDESSKPCCDQCACTKSNPPQCRCSDMRLNSCHSACKSCICALSYPAQCFCVDITDFCYEPCKPSEDDKEN

Experiments:
trypsin = assay: Enzchek protease digestion fluorescent assay with trypsin; assay type: biochemical; settings: 100 units of trypsin; increasing concentrations / serial dilutions
Protocol: In order to support the hypothesis that STI and BBI in soymilk are involved in the hair growth effects described above, we tested soymilk for its serine protease inhibitory activity. An enzymatic assay was performed using “Enzchek”, a protease digestion fluorescent test system made by Molecular Probes of Eugene, Oreg. Using 100 units of trypsin (from Sigma chemicals, St. Louis Mo.) the test system produced fluorescence reading of about 1100 units. This reaction was inhibited with increasing concentrations of STI, as expected from a known trypsin inhibitor.

C57Bl/6 mice = assay: Depilation-induced hair cycle in C57Bl/6 mice, daily topical treatment; assay type: in vivo, mouse; settings: day eight of the hair cycle (FIG. 10), PBS-liposome vehicle
Description: (§1) C57BI/6 or C3H mice (male and female) were obtained from Charles River (Kingston, NY), at 8-10 weeks of age and were in the resting (telogen) phase of their respective hair cycle. Hair growth was induced by wax depilation (plucking) of each respective animal's back fur according to the procedure set forth in Stenn, et al., “Glucocorticoid Effect on Hair Growth Initiation: A Reconsideration,” 6 Skin Pharmacol., 125-134 (1993). In C57Bl/6 and C3H mice, 8-10 weeks old, the growth phase (anagen) starts synchronously in all hair follicles at the time of depilation.
Since the murine hair cycle varies not only between strains, but also amongst individual animals, the status of the hair cycle was analyzed in each animal on study. A 2 cm by 1 cm skin sample was isolated from each mouse with scissors, fixed with a 10% buffered formalin solution having a pH of about 6.9-7.1 at 25° C. (Stephens Scientific), and then formed into a paraffin block according to well-known procedures. The block was then microtomed, and sections were stained with H&E or Fontana-Mason stain. Sections were examined histologically in order to verify the phase of the hair cycle, the size of the hair follicle and hair shaft and the level of hair pigmentation, using procedures well known in the art. Hair length was assessed visually, and by using a low magnification (×8) dissecting microscope. […]

C3H mice = assay: Depilation-induced hair cycle in C3H mice, daily topical treatment; assay type: in vivo, mouse; settings: for hair follicle histology: 1%, day seven of the hair cycle; for hair follicle histology / effect on hair growth and pigmentation: PBS-liposome vehicle; for effect on hair growth and pigmentation: high concentrations; for hair growth, follicle and shaft size, visual observation throughout the hair cycle: in PBS-liposome vehicle (FIG. 9)
Description: as §1
Since the murine hair cycle varies not only between strains, but also amongst individual animals, the status of the hair cycle was analyzed in each animal on study. A 2 cm by 1 cm skin sample was isolated from each mouse with scissors, fixed with a 10% buffered formalin solution having a pH of about 6.9-7.1 at 25° C. (Stephens Scientific), and then formed into a paraffin block according to well-known procedures. The block was then microtomed, and sections were stained with H&E or Fontana-Mason stain. Sections were examined histologically in order to verify the phase of the hair cycle, the size of the hair follicle and hair shaft and the level of hair pigmentation, using procedures well known in the art. Hair length was assessed visually, and by using a low magnification (×8) dissecting microscope.
In order to verify that the effect of soymilk on hair growth is not specific to C57Bl/6 mice, we repeated the experiment described in Example 4 using the brown haired (Agouti) C3H mice. The results of these experiments were similar both visually and histologically.

Row | Molecule | inhibition of trypsin reaction (trypsin) | hair follicle histology (C57Bl/6 mice) | hair follicle histology (C3H mice) | effect on hair growth and pigmentation (C3H mice) | hair growth, follicle and shaft size, visual observation throughout the hair cycle (C3H mice)
1 | B1 | inhibited | smaller and less pigmented follicles | reduce hair follicle and hair shaft size and hair shaft pigmentation | substantial | could delay hair growth and reduce hair follicle and hair shaft size
2 | B2 |  | smaller and less pigmented follicles | reduce hair follicle and hair shaft size and hair shaft pigmentation | substantial | could delay hair growth and reduce hair follicle and hair shaft size
